Measurements reported in patent US12006343B2, “C4BP-based compounds for treating immunological diseases” (FUNDACIO INSTITUT D'INVESTIGACIO BIOMEDICA DE BELLVITGE …, priority 2017, dated 2024).

Key:
[1] = test system: human monocyte-derived DCs; settings: negative control; Olivar et al. 2013; cited from earlier work
[2] = test system: human monocyte-derived DCs; assay: Immunomodulatory activity over human monocyte-derived DCs: CD83/CD86 surface expression by flow cytometry after LPS maturation; type: cell-based; settings: MoDCs pre-incubated with 5 μg/ml protein, LPS challenge; FIG. 4

B1: C4BP(β+): major C4BP α7β1 plus minor C4BP α6β1 isoforms (in complex with ProS) purified from pooled human plasma; negative control (protein, UniProt P04003 49-597; P20851 18-252, looked up)
C4b-binding protein alpha …: NCGPPPTLSFAAPMDITLTETRFKTGTTLKYTCLPGYVRSHSTQTLTCNSDGEWVYNTFCIYKRCRHPGELRNGQVEIKTDLSFGSQIEFSCSEGFFLIGSTTSRCEVQDRGVGWSHPLPQCEIVKCKPPPDIRNGRHSGEENFYAYGFSVTYSCDPRFSLLGHASISCTVENETIGVWRPSPPTCEKITCRKPDVSHGEMVSGFGPIYNYKDTIVFKCQKGFVLRGSSVIHCDADSKWNPSPPACEPNSCINLPDIPHASWETYPRPTKEDVYVVGTVLRYRCHPGYKPTTDEPTTVICQKNLRWTPYQGCEALCCPEPKLNNGEITQHRKSRPANHCVYFYGDEISFSCHETSRFSAICQGDGTWSPRTPSCGDICNFPPKIAHGHYKQSSSYSFFKEEIIYECDKGYILVGQAKLSCSYSHWSAPAPQCKALCRKPELVNGRLSVDKDQYVEPENVTIQCDSGYGVVGPQSITCSGNRTWYPEVPKCEWETPEGCEQVLTGKRLMQCLPNPEDVKMALEVYKLSLEIEQLELQRDSARQSTLDKEL
C4b-binding protein beta chain: SDAEHCPELPPVDNSIFVAKEVEGQILGTYVCIKGYHLVGKKTLFCNASKEWDNTTTECRLGHCPDPVLVNGEFSSSGPVNVSDKITFMCNDHYILKGSNRSQCLEDHTWAPPFPICKSRDCDPPGNPVHGYFEGNNFTLGSTISYYCEDRYYLVGVQEQQCVDGEWSSALPVCKLIQEAPKPECEKALLAFQESKNLCEAMENFMQQLKESGMTMEELKYSLELKKAELKAKLL
modifications: in complex with protein S
notes: major C4BP α7β1 plus minor C4BP α6β1 isoforms (in complex with ProS) purified from pooled human plasma; negative control
Question: What does the source list for B1?
Answer: immunomodulatory activity [1]: no immunomodulatory activity; semi-mature, anti-inflammatory phenotype conferred to LPS-matured MoDCs (immunomodulatory activity) [2]: inactive
